Substitutions are numbered along the chain they refer to.
B1: chimeric 207F8G5 (antibody, human IgG1, kappa, V domains shown)
VH: QAYLQQSGAELVRSGASVKMSCKASGFTFTSYNIHWVKQTPGQGLEWIGYISPGNGGSNYNLKFKDKATLTSATSSSTAYMQISSLTSEDSAVYFCATGRGFAYWGQGTLVTVSA
VL: DIVMTQSPSSLTVTPGEKVTMSCKSSQSLFNSGNQKNYLIWYQQKPGQPPKLLIYRASTRDSGVPDRFTGSGSGTDFTLTISNVQAEDLAIYYCQNDYSYPLTFGAGTKLELKR
notes: chimeric, human IgG1/kappa constant regions; also called 207F8G5-Chimeric
B2: chimeric 237D2A4 (antibody, human IgG1, kappa, V domains shown)
VH: QVQLKESGPGLVAPSQSLSITCTVSGFSLTSYGVSWVRQPPGKGLEWLGVIWGDGSTNYHSTLISRLRISKDKSKSQVFLKLNSLQTDDTATYYCAKAGRGNALDYWGQGTSVTVSS
VL: B1 VL with P15A, F30L, I40T, R56W, D61E, N83S, I91V, Y100F
notes: chimeric, human IgG1/kappa constant regions; also called 237D2A4-Chimeric
B3: chimeric 232C5E3 (antibody, human IgG1, kappa, V domains shown)
VH: QAYLQQSGAELVRSGASVKMSCKASGYTFTSHNIHWIKQTPGKGLEWIGYIYPGNGGTNYNQKFKAKATLTADTSSSTAYMQISSLTSEDSAVYFCARDYYGNSFAYWGQGTLVTVSA
VL: DIMMTQSPSSLTETAGEKVSMSCKSSQSLLNSGNQKNYLTWYQQKPGQPPKLLIYWASTRESGVPDRFSGSGSGTDFTLTISSVQAEDLAVYYCQNGYRFPFTFGAGTKLELKR
notes: chimeric, human IgG1/kappa constant regions; also called 232C5E3-Chimeric
B4: chimeric 410H6H3 (antibody, human IgG1, kappa, V domains shown)
VH: DVLLVESGGGLVQPGGSRKLSCAASGFTFSSSGMHWVRQAPEKGLEWVAYISSGSNTIYYADTLKGRFTISRDNPKNTLFLQMTSLRSEDTAMYYCARIYYGNSFVYWGQGTLVTVSA
VL: DIVMTQSPSSLTVTAGEKVIMSCKSSQSLLNSGNQKNYLTWYQQKPGQPPKMLIYWASTRESGVPDRFRGSGSGTDFTLTISSVQAEDLAVYYCQNNYYYPLTFGTGTKLALKR
notes: chimeric, human IgG1/kappa constant regions; also called 410H6H3-Chimeric
B5: chimeric 246B5F2 (antibody, human IgG1, kappa, V domains shown)
VH: EVMLVESGGGLMKPGGSLKLSCAASEFTFSNYAMSWVRQTPEKRLEWVATISSGRSSTYYPDSVKGRFTISRDNAKNTLYLQMSSLRSEDTAMYYCAGLGRGNAMEYWGQGTSVTVSS
VL: DIVMTQSPSSLTVTAGEKVTLSCKSSQSLLNSGNQKNYLTWYQQKPGQPPKLLIYWASTRESGVPDRFTGSGSGTDFILTINSVQAEDLAVYYCQNAYSYPFTFGSGTKLEIKR
notes: chimeric, human IgG1/kappa constant regions; also called 246B5F2-Chimeric
B6: chimeric 370E2B12C3 (antibody, human IgG1, kappa, V domains shown)
VH: QVQLKESGPGLVAPSQSLSITCTVSGFSLTTYGVHWVRQPPGKGLEWLGVIWAGGSTNYNSALMSRVSINKDNSKSQVFIKMNSLQADDTALYYCARAAYYGNGLDYWGQGTTLTVSS
VL: B5 VL with L21M, S28T, R60G, I78T, N82S, Y93F, S99F, S106G
notes: chimeric, human IgG1/kappa constant regions; also called 370E2B12C3-chimeric
B7: chimeric 253E4F7 (antibody, human IgG1, kappa, V domains shown)
VH: EIQLQQSGPELMKPGASVKMSCKASGYSFTSYYIHWVKQSHGKSLEWIGYIDPFNGGTRYNQKFEGKATLTVDKSSTTAYMHLSSLTSEDSTVYYCASLRFLAYWGQGTLVTVSA
VL: B1 VL with P15A, S22T, F30L, I40T, L52V, Y55S, D61Q, N83S, I91V
notes: chimeric, human IgG1/kappa constant regions
B8: chimeric 185F2G12 (antibody, human IgG1, kappa, V domains shown)
VH: QAYLQQSGAELVRSGASVKMSCKASGYTFTSYNMHWVRQTPGQGLEWIGYIYPGNGGTNYSQKFKGKASLTADTSSTTAYMQISSLTSEDSAVYFCATGRGFAYWGQGTLVTVSA
VL: B1 VL with P15A, M21L, S32T, I40T, Y55F, D61E, S73F, N83S, I91V, Y98F
notes: as for B7
B9: chimeric 262C7C10 (antibody, human IgG1, kappa, V domains shown)
VH: B3 VH with S31N, H32Y, I37V, K43Q, T58N, N59Y, A66G, S77I
VL: B4 VL with I20T, S22N, M52L, R69T, V91I, N97D, T106A, A111E
notes: as for B7
B10: chimeric 265E6G2 (antibody, human IgG1, kappa, V domains shown)
VH: B3 VH with H32Y, I34M, I37V, K43Q, A66G
VL: B1 VL with I2L, P15A, F30L, I40T, R56W, D61E, V84I, I91V, T103P, K113R
notes: as for B7
B11: chimeric 260G9E8 (antibody, human IgG1, kappa, V domains shown)
VH: B3 VH with Y3D, T30A, I34M, I37V, K43Q, N59K, K65T, A66G, S84T
VL: B3 VL with M3V, T14K, S22R, S69T, E87D, G97D, R99M
notes: as for B7
B12: chimeric 252E7C9 (antibody, human IgG1, kappa, V domains shown)
VH: QTYLQQSGAELVRSGASVKMSCRTSGYSFTSHNMHWVKQTPGQGLEWIGYIYPGNGGSYYNQKFKGKAILTADTSSSTAYMQISSLTSEDSAVYFCTRDYYGNSFVYWGQGTLVTVSA
VL: DVVMTQSPSSLTEKTGEKVSMSCKSSQSLLNSGNQKNYLTWYQQKPGQPPKLLIYWASTRESGVPDRFTGSGSGTDFTLTISSLQTEDLAIYYCQNNFRYPFTFGAGTKLELKR
notes: as for B7
B13: chimeric 273C10E5 (antibody, human IgG1, kappa, V domains shown)
VH: QVQLQQSGAELVKPGASVKLSCKASGYTFTSFGINWLRQRPEQGLEWIGWIFPGDGNSKYNENFKGKATLTTDKSSSTAYMQVTRLTSEDSAVYFCARFYYGNSFANWGQGTLVTVSA
VL: B3 VL with M3V, E13V, S20T, S58A, S69A, G97D, R99F, F100Y
notes: as for B7
B14: chimeric 419B5G9 (antibody, human IgG1, kappa, V domains shown)
VH: DVQLVESGGGLVQPGGSRKLSCAASGFTFSTFGMHWVRQAPEKGLEWVAYISGGSTTIFYADTVKGRFTISRDNPKNTLFLQMTSVRSEDTAMYYCARFYYGNSFAYWGPGTLVTVST
VL: B4 VL with I20T, R69T, N97A, Y99S, T106A, A111E
notes: as for B7
B15: chimeric 393C2C5 (antibody, human IgG1, kappa, V domains shown)
VH: B4 VH with L3Q, S32F, N56S, T57P, L64V, Y95F, R98T, I99F, V106A
VL: B5 VL with L21M, S28T, P46S, I78T, N82S, F102V, L110V, I112L
notes: chimeric, human IgG1/kappa constant regions; also called 393C2C5A
B16: chimeric 418D2F9 (antibody, human IgG1, kappa, V domains shown)
VH: B4 VH with L3Q, S32F, S52N, S53T, N56S, L64V
VL: B4 VL with I20T, M52L, R69T, N97D, Y99S, T106A, A111E
notes: as for B7
B17: chimeric 429H6C5 (antibody, human IgG1, kappa, V domains shown)
VH: DVQLVESGGGLVQPGGSRKLSCAASGFTFSSFGMHWVRQAPEKELEWVAYISSGSSTIYYAHTVKGRFTISRDNPKNTLFLRMTSLGSEDTAMYYCVRFYYGNSFVNWGQGTLVTVSA
VL: B4 VL with V13A, I20T, R69A, N97A, Y99I, T106A, K109R, A111E
notes: as for B7
B18: chimeric 407D8G1 (antibody, human IgG1, kappa, V domains shown)
VH: DVQLVESGGGLVQPGGSRKLSCAASGFTFSGFGMHWIRQTPEKGLEWVAYISSGSRPIYYADTVQGRFTISRDNPKNTLFLQMTSLRSEDTAMYFCARFYYGNSFDHWGQGTLVTVSS
VL: B3 VL with M3V, S10F, E13V, S20T, S69T, V91L, G97A, R99S, F102L
notes: as for B7
B19: chimeric 418G6A5 (antibody, human IgG1, kappa, V domains shown)
VH: B4 VH with L3Q, A23V, S32F, N56S, T57P, I58M, L64V, Y95F, V106A
VL: B5 VL with L21M, I78T, N82S, F102L, S106A, I112L
notes: as for B7
B20: chimeric 417A6F11 (antibody, human IgG1, kappa, V domains shown)
VH: EVQLQQSGPELVKPGASMKISCKASGYSFTGYTMNWVKQSHGKNLEWIGLINPYNGGTSYNQKFKGKATLTVDKSSSTAYMELLSLTSEDSAVYYCARGDYWGQGTTLTVSS
VL: DIVMTQSPSSLTVTAGEKVTMSCKSSQSLLNSGNQKNYLTWYQQKPGQPPKLLIYWASTRESGVPDRFTGSGSGTDFTLTISSVQAEDLAVYYCQNDYSYPTFGAGTKLELKR
notes: as for B7

Target: T1, human Claudin18.2 (human)
T1 construct: also called CLDN18.2
Experiment: FACS, Claudin18.2-HEK293 cells
Description: (§1) The binding of chimeric antibodies to Claudin18.2 expressed on HEK293 cells was determine by FACS analysis. Briefly, HEK293 cells expressing human Claudin18.2 as prepared in the foregoing Example were harvested and incubated with anti-Claudin18.2 mAbs at 4° C. for 40 min, followed by fluorophore (iFluor 647)-labeled goat […] IgG (H+L) secondary antibodies at 4° C. for 0.5 hour. The samples were then analyzed by flow cytometry.
After initial screening of cell binding with transfected supernatants, the binding pattern of chimeric and up to 3 humanized antibodies on Claudin18.2 expressed on HEK293 cells were plotted with antibody in 3× serial dilutions, starting concentration of 45 μg/ml, following the protocol described in Example 3.

| EC50 | Span | Binder |
| --- | --- | --- |
| 0.17 µg/mL | 11800 | B1 |
| 0.0923 µg/mL | 14800 | B2 |
| 0.317 µg/mL | 69700 | B3 |
| 0.843 µg/mL | 79100 | B4 |
| 0.192 µg/mL | 12400 | B5 |
| 0.772 µg/mL | 4570 | B6 |

Target: T1, human Claudin18.2
Experiment: FACS, Claudin18.2-HEK293 cells
Remark: another data set of the same source
Description: as §1

| EC50 | Binder |
| --- | --- |
| 0.554 nM | B1 |
| 0.561 nM | B7 |
| 0.634 nM | B8 |
| 1.17 nM | B9 |
| 1.05 nM | B10 |
| 0.596 nM | B2 |
| 1.05 nM | B11 |
| 1.05 nM | B3 |
| 0.331 nM | B12 |
| 1.24 nM | B5 |
| 0.792 nM | B6 |
| 1.01 nM | B13 |

Target: T1, human Claudin18.2
Experiment: cell-based or functional assay

| CDC % Relative activity | CDC EC50 | Binder |
| --- | --- | --- |
| 1300% | 0.207 µg/mL | B1 |
| 1320% | 0.205 µg/mL | B7 |
| 2100% | 0.101 µg/mL | B8 |
| 666% | 0.345 µg/mL | B9 |
| 487% | 0.472 µg/mL | B10 |
| 1170% | 0.231 µg/mL | B2 |
| 2000% | 0.106 µg/mL | B14 |
| 2030% | 0.105 µg/mL | B15 |
| 3.04% | 69.9 µg/mL | B16 |
| 684% | 0.336 µg/mL | B11 |
| 2130% | 0.0994 µg/mL | B3 |
| 991% | 0.272 µg/mL | B12 |
| 2810% | 0.0756 µg/mL | B4 |
| 2430% | 0.0874 µg/mL | B17 |
| 985% | 0.274 µg/mL | B5 |
| 1200% | 0.192 µg/mL | B6 |
| 854% | 0.269 µg/mL | B13 |

Target: T1, human Claudin18.2
Experiment: FACS, Claudin18.2-HEK293 cells
Remark: another data set of the same source
Description: as §1

| EC50 | Binder |
| --- | --- |
| 0.533 nM | B18 |
| 0.595 nM | B19 |
| 1.23 nM | B14 |
| 0.687 nM | B15 |
| 0.65 nM | B16 |
| 0.778 nM | B4 |
| 0.908 nM | B17 |
| 2.48 nM | B20 |

Target: T1, human Claudin18.2
Experiment: cell-based or functional assay
Remark: another data set of the same source

| ADCC % Relative activity | ADCC EC50 | Binder |
| --- | --- | --- |
| 114% | 0.0214 µg/mL | B1 |
| 138% | 0.0225 µg/mL | B7 |
| 399% | 0.00886 µg/mL | B8 |
| 105% | 0.0237 µg/mL | B9 |
| 77.8% | 0.0321 µg/mL | B10 |
| 169% | 0.0214 µg/mL | B2 |
| 332% | 0.00794 µg/mL | B14 |
| 318% | 0.0111 µg/mL | B15 |
| 25.7% | 0.103 µg/mL | B16 |
| 104% | 0.024 µg/mL | B11 |
| 452% | 0.00782 µg/mL | B3 |
| 98.7% | 0.0311 µg/mL | B12 |
| 677% | 0.0039 µg/mL | B4 |
| 144% | 0.0184 µg/mL | B17 |
| 157% | 0.023 µg/mL | B5 |
| 75.7% | 0.0335 µg/mL | B6 |
| 92.1% | 0.0275 µg/mL | B13 |
